Source: paper doi:10.1101/2020.01.21.912428

Key:
[1] = target: dTBCE-GFP expressed in Drosophila embryos (Drosophila melanogaster) (UniProt A1Z6J5); experiment: fluorescence microscopy of beads
[2] = target: dTBCE^mutCG-GFP expressed in Drosophila embryos (Drosophila melanogaster) (UniProt A1Z6J5); experiment: fluorescence microscopy of beads

mean fluorescence intensity in the tubulin-rhodamine channel [1]: 25.9 a.u.
mean fluorescence intensity in the tubulin-rhodamine channel [2]: 4.7 a.u.
Substance: bovine brain tubulin supplemented with 25 % of tubulin-rhodamin (from UniProt Q6B856 1-445) (complex)
